From patent US20190077863A1 (AERPIO PHARMACEUTICALS, published 2019)

B1: mouse/human chimeric antibody HC0LC0 (antibody, human IgG4 S228P, kappa, V domains shown)
VH: EVQLVETGGGLVQPKGSMKLSCAASGFTFNANAMNWIRQAPGKGLEWVARIRTKSNNYATYYAGSVKDRFTISRDDAQNMLYLQMNDLKTEDTAMYYCVRDYYGSSAWITYWGQGTLVTVSA
VL: DIVMTQSHKFMSTSVGDRVSITCKASQHVGTAVAWYQQKPDQSPKQLIYWASTRHTGVPDRFTGSGSGTDFTLTISNVQSEDLADYFCQQYSSYPFTFGSGTKLEIKR
notes: Murine variable domains of R15E6 on human IgG4 (S228P) and kappa constant domains, expressed in CHO cells; also called VH0-VL0
B2: humanized R15E6 variant HC2LC1 (antibody, human IgG4 S228P, kappa, V domains shown)
VH: EVQLVESGGGLVQPGGSLRLSCAASGFTFNANAMNWVRQAPGKGLEWVGRIRTKSNNYATYYAGSVKDRFTISRDDSKNSLYLQMNSLKTEDTAVYYCVRDYYGSSAWITYWGQGTLVTVSS
VL: DVVMTQSPSFLSASVGDRVTITCKASQHVGTAVAWYQQRPGKAPKLLIYWASTRHTGVPSRFSGSGSGTEFTLTISSLQPEDFATYFCQQYSSYPFTFGGGTKLEIKR
notes: Human IgG4 (S228P) / kappa, expressed in CHO cells; Signal peptides left out by range; also called VH2-VL1
B3: humanized R15E6 variant HC2LC4 (antibody, human IgG4 S228P, kappa, V domains shown)
VH: EVQLVESGGGLVQPGGSLRLSCAASGFTFNANAMNWVRQAPGKGLEWVGRIRTKSNNYATYYAGSVKDRFTISRDDSKNSLYLQMNSLKTEDTAVYYCVRDYYGSSAWITYWGQGTLVTVSS
VL: DIVMTQSPDSLAVSLGERATINCKASQHVGTAVAWYQQKPEQPPKLLIYWASTRHTGVPDRFSGSGSGTDFTLTISSLQAEDVAVYYCQQYSSYPFTFGGGTKVEIKR
notes: Human IgG4 (S228P) / kappa, expressed in CHO cells; Signal peptides left out by range; also called VH2-VL4
B4: humanized R15E6 variant HC1LC2 (antibody, human IgG4 S228P, kappa, V domains shown)
VH: EVQLVESGGGLVQPGGSLKLSCAASGFTFNANAMNWVRQASGKGLEWVGRIRTKSNNYATYYAGSVKDRFTISRDDSKNTAYLQMNSLKTEDTAAYYCVRDYYGSSAWITYWGQGTLVTVSS
VL: DIVMTQSPDSLAVSLGERATINCKASQHVGTAVAWYQQKPGQPPKLLIYWASTRHTGVPDRFSGSGSGTDFTLTISSLQAEDVAVYYCQQYSSYPFTFGQGTKLEIKR
notes: Human IgG4 (S228P) / kappa, expressed in CHO cells; Signal peptides left out by range; also called VH1-VL2
B5: humanized R15E6 variant HC1LC4 (antibody, human IgG4 S228P, kappa, V domains shown)
VH: EVQLVESGGGLVQPGGSLKLSCAASGFTFNANAMNWVRQASGKGLEWVGRIRTKSNNYATYYAGSVKDRFTISRDDSKNTAYLQMNSLKTEDTAAYYCVRDYYGSSAWITYWGQGTLVTVSS
VL: DIVMTQSPDSLAVSLGERATINCKASQHVGTAVAWYQQKPEQPPKLLIYWASTRHTGVPDRFSGSGSGTDFTLTISSLQAEDVAVYYCQQYSSYPFTFGGGTKVEIKR
notes: Human IgG4 (S228P) / kappa, expressed in CHO cells; Signal peptides left out by range; also called VH1-VL4

What follows are binders tested against T1, Human VE-PTP (HPTP-β) containing first eight FN3 repeats with C-terminal His6 tag (Human ½ VE-PTP ECD) (human, UniProt P23467 23-820) (assay: SPR (Biacore 3000), antibody captured on anti-human IgG, antigen as analyte 50-0 nM).
T1 construct: Produced in HEK293 cells and purified by the His tag; it was not cut off; also called Human Beta ½ ECD
T1 sequence: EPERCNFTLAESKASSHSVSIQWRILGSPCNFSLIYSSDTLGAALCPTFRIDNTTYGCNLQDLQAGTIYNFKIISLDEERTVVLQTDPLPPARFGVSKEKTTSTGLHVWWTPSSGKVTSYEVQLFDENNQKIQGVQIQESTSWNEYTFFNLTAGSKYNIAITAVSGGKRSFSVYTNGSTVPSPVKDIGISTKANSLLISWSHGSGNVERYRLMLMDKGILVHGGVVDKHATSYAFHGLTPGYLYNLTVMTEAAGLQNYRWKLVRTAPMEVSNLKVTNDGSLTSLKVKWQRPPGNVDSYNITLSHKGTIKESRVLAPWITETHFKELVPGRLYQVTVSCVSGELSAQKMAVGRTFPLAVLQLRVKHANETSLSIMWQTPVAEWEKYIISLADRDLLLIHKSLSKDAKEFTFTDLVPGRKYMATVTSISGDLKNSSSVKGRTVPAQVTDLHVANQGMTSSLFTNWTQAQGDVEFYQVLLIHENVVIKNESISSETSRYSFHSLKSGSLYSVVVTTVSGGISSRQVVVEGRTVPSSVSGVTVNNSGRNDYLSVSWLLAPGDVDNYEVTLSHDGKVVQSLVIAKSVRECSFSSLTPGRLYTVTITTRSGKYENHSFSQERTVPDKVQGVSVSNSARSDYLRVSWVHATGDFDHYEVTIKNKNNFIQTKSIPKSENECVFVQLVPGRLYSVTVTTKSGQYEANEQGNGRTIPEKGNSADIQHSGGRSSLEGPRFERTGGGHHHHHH
Description: Samples of each variant were further assessed by Biacore analysis to determine the binding affinity. Antibody binding experiments were performed on Biacore 3000™ at 25° C. Assay buffer: 10 mM HEPES buffer (pH 7.4), 150 mM NaCl, 3 mM EDTA, 0.05% P20 (polyoxyethylenesorbitan). […] Conjugation buffer: 10 mM sodium acetate buffer (pH 5). The flow rate used for capturing the ligand was 5 μL/min. The flow rate for the kinetic analysis was 50 μL/min. Flow cell 1 and […] of the CM5 chip were coated with maximum amounts of goat anti-human IgG. Approximately 150 RU of the test antibody was captured on flow cell 2, 3, and 4 as indicated. The antigen was flowed over the chip. Binding of the antigen to the antibodies was monitored in real time. The KD was determined from the observed kₒₙ and koff values.
B1 showed a Ka of 3.18e+08 M⁻¹, a Kd of 3.14 nM and a koff of 0.000656 s⁻¹. The kon was 209000 M⁻¹ s⁻¹.
For B2, the Ka was 1.5e+10 M⁻¹, the Kd was 0.0668 nM and the koff was 7.23e-05 s⁻¹. It also gave a kon of 1.08e+06 M⁻¹ s⁻¹.
With B3 the Ka was 2.3e+09 M⁻¹, the Kd was 0.436 nM and the koff was 0.000429 s⁻¹. It also gave a kon of 986000 M⁻¹ s⁻¹.
B4 showed a Ka of 4.33e+08 M⁻¹, a Kd of 2.31 nM and a koff of 0.000947 s⁻¹. The kon was 410000 M⁻¹ s⁻¹.
B5 was tested, and the Ka was 4.44e+08 M⁻¹, the Kd was 2.25 nM and the koff was 0.00134 s⁻¹. It also gave a kon of 596000 M⁻¹ s⁻¹.
